Assay results taken from patent US20230265164A1 (MIT, published 2023).

T1: IL8 (UniProt P10145 28-99, limits assumed)
T1 sequence (looked up): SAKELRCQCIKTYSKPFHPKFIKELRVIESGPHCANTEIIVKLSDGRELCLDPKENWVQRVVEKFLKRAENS

T2: CCL25 (UniProt O15444 24-150, limits assumed)
T2 sequence (looked up): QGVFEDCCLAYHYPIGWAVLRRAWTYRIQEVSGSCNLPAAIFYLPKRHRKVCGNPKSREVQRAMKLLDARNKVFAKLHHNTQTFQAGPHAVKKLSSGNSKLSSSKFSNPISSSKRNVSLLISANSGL


Key:
IL8 = biological target: T1, IL8; test: MicroScale Thermophoresis; 5 nM NT647-labeled receptor-Fc against a ligand gradient, 25 C
Procedure: (§1) MicroScale Thermophoresis (MST) is an optical method detecting changes in thermophoretic movement and TRIC of the protein-attached fluorophore upon ligand binding. Active labelled proteins contribute to the thermophoresis signal upon ligand binding. […] Herein ligand binding experiments were carried out with 5 nM NT647-labeled protein in 1×PBS, 10 mM DTT buffer with different concentration of arginine, against a gradient of respective ligands on a Monolith NT.115 pico instrument at 25° C. Synthesized receptors were labeled with Monolith NT™ 2nd generation protein labeling kit RED-NHS (NanoTemper Technologies) so as to obtain unique fluorescent signals. MST time traces were recorded and analyzed to obtain the highest possible signal-to-noise levels and amplitudes, >5 Fnorm units. The recorded fluorescence was plotted against the concentration of ligand, and curve fitting was performed using the Kd fit formula derived from the law of mass action. For clarity, binding graphs of each independent experiment were normalized to the fraction bound (0=unbound, 1=bound). MST experiments were performed in the Center for Macromolecular Interactions at Harvard Medical School.

CCL25 = biological target: T2, CCL25; test: as above
Procedure: as §1

Row | Kd (IL8) | Kd (CCL25) | Binder
1 | 60.3 nM | – | CXCR2^QTY-Fc (Fc fusion, NT647 (RED-NHS) fluorescent dye on lysines/N-terminus in the MST assay; positions not given., also called CXCR29QTY-Fc) MEDFNMESDSFEDFWKGEDLSNYSYSSTLPPFLLDAAPCEPESLEINKYYTTTTYAQTYQQSQQGNSQTMQTTQYSRVGRSVTDTYQQNQAQADQQYAQTQPTWAASKVNGWIFGTFLCKTTSQQKETNYYSGTQQQACTSTDRYLAIVHATRTLTQKRYLVKYTCQSTWGQSQQQAQPTQQYRRTVYSSNVSPACYEDMGNNTANWRMQQRTQPQSYGYTQPQQTMQYCYGFTLRTLFKAHMGQKHRAMRTTYATTQTYQQCWQPYNQTQQADTLMRTQVIQETCERRNHIDRAQDATETQGTQHSCQNPQTYAYTGQKFRHGLLKILAIHGLISKDSLPKDSRPSFVGSSSGHTSTTLTETSQVAPAHHHHHHHHHHGSKLVDPRGPTIKPCPPCKCPAPNLLGGPSVFIFPPKIKDVLMISLSPIVTCVVVDVSEDDPDVQISWFVNNVEVHTAQTQTHREDYNSTLRVVSALPIQHQDWMSGKEFKCKVNNKDLPAPIERTISKPKGSVRAPQVYVLPPPEEEMTKKQVTLTCMVTDFMPEDIYVEWTNNGKTELNYKNTEPVLDSDGSYFMYSKLRVEKKNWVERNSYSCSVVHEGLHNHHTTKSFSRTPGK
2 | – | 37.2 nM | CCR9^QTY-Fc (Fc fusion, NT647 (RED-NHS) fluorescent dye on lysines/N-terminus in the MST assay; positions not given.) MTPTDFTSPIPNMADDYGSESTSSMEDYVNFNFTDFYCEKNNVRQFASHYQPPQYWQTYTTGAQGNSQTTQTYWYCTRVKTMTDMYQQNQATADQQYQTTQPYWATAAADQWKFQTFMCKTTNSMYKMNYYSCTQQTMCTSTDRYTATAQAMRAHTWREKRQQYSKMTCYTTWTQAAAQCTPETQYSQIKEESGIAICTMVYPSDESTKQKSATQTQKTTQGYYQPYTTMACCYTTTTHTQTQAKKSSKHKAQKTTTTTQTTYTQSQYPYNCTQQTQTTDAYAMFISNCATSTNTDTCYQTTQTTAYYHSCQNPTQYTYTGERFRRDLVKTLKNLGCISQAQWVSFTRREGSLKLSSMLLETTSGALSLTETSQVAPAHHHHHHHHHHTETSQVAPAHHHHHHHHHHGSKLVDPRGPTIKPCPPCKCPAPNLLGGPSVFIFPPKIKDVLMISLSPIVTCVVVDVSEDDPDVQISWFVNNVEVHTAQTQTHREDYNSTLRVVSALPIQHQDWMSGKEFKCKVNNKDLPAPIERTISKPKGSVRAPQVYVLPPPEEEMTKKQVTLTCMVTDFMPEDIYVEWTNNGKTELNYKNTEPVLDSDGSYFMYSKLRVEKKNWVERNSYSCSVVHEGLHNHHTTKSFSRTPGK
